According to the supplement of paper PMC10126150:
± gives the standard deviation of the averaged measurements.

Test system: ATP
Experiment: switch fluorescence ratio, 500 uM ATP over buffer (Cy3 cluster intensity, sum of 5 cycles each) (fold (ratio)); higher = stronger signal-on switching upon ATP binding; sequences stand for … in TCGTCGGCAGCGTCAGATGTGTATAAGAGACAGTTTTTTTTTTTTTTTTTTTTTTTTT…TC
Conditions: aptamer strand: ATP DNA aptamer (quencher-CACCTGGGGGAGTATTGCGGAGGAAGG + anchor), 100 nM annealed; ATP concentration: 500 uM
Method in brief: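 Clusters with intensities outside 100-1000 RFU were excluded. The remaining Cy3-labelled switching-strand clusters on a modified Illumina MiSeq flow-cell had been annealed to 100 nM quencher-labelled ATP aptamer and imaged in selection buffer, then after 15 min with 500 uM ATP at 22 °C, for five cycles separated by NaOH stripping and re-annealing. The fluorescence ratio, averaged per switch-domain sequence, is each cluster's summed target-cycle Cy3 intensity over its summed buffer-cycle Cy3 intensity.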
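Also: ATP exposure 15 min at 22 °C before imaging.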

Sequence	switch fluorescence ratio
CGATGGGGGA	1.02 ± 0.018
CTCGTTGCTT	1.03 ± 0.037
GACATAGGGT	0.994 ± 0.025
CTATGTATGT	1.01 ± 0.022
TGGAGTGGGT	1.01 ± 0.011
GACGGGTCTC	1.001 ± 0.0098
TTAATTCTGG	0.9976 ± 0.0034
TTATACATGT	0.973 ± 0.055
GAGTGATGGC	1.03 ± 0.014
AATAAAGAAT	0.973 ± 0.019
CGGTAACCGC	0.994 ± 0.098
CATTATGGGT	0.95 ± 0.013
GCGTATTGCT	0.993 ± 0.016
CTTGCAAACG	1.201 ± 0.0043
TTTAATCAGG	1.04 ± 0.025
ATGATGGACG	1.03 ± 0.062
GCGCTACTAG	1.02 ± 0.021
GCGATCAGGT	1.02 ± 0.017
CCCTGGGGTA	1.07 ± 0.056
GAGTAATGTT	1.02 ± 0.016
CGGGGATCTA	1 ± 0.018
GGGGTTGTTA	0.988 ± 0.021
TTTTCGACTA	0.97 ± 0.043
TAAGGGCCTT	0.992 ± 0.026
CCGCGCACCG	1.73 ± 0.053

Sequence	switch fluorescence ratio
TCGGGGAAAG	1.04 ± 0.082
TTTTTAAAGT	0.993 ± 0.026
TCCATGACGC	1.099 ± 0.0088
TTACGTGGGA	1.02 ± 0.026
GGTTTCTCTT	1.003 ± 0.0099
CCCGGGTATG	1.03 ± 0.02
CATTTAGGTT	0.982 ± 0.019
CCTGTGCGGA	1.534 ± 0.013
GGAGGGGGGA	1.09 ± 0.24
GATCGCGTGG	0.968 ± 0.012
CGAGAGTGTT	0.995 ± 0.026
ATGCCCGGGC	0.988 ± 0.017
TATCTAAATA	1.007 ± 0.007
CATCGAGTGT	1.05 ± 0.029
GGAAAAAGAT	1.04 ± 0.018
TGCCGGCGGG	0.9629 ± 0.0043
AGGAAAAAAA	2.85 ± 2.6
TTGACTATCG	1 ± 0.076
TGACCGCCGT	1.06 ± 0.035
TTAAACGCGG	1.05 ± 0.066
AACGGTAGGT	1.01 ± 0.018
CGGGGATCCT	1.05 ± 0.032
GTTATCACTG	1.02 ± 0.014
GTCAAATATG	0.9678 ± 0.0028
GAGTTTGGG	1 ± 0.02

Sequence	switch fluorescence ratio
GGGGATTTTG	0.9746 ± 0.0022
CCTTGTATAT	1.077 ± 0.0083
CGTTGAGGTT	0.979 ± 0.026
TCGGTATTTT	1.01 ± 0.026
GGGGGGACGC	1.02 ± 0.013
GCGGGTCTGC	0.963 ± 0.028
AGGCGCCTGT	1.02 ± 0.017
AAATCTTAAA	0.9917 ± 0.0023
TAGGGGCTCG	0.999 ± 0.032
ATATTGAGCT	0.976 ± 0.022
GAGATAGGTA	0.997 ± 0.024
TGTAATTTTC	1.05 ± 0.12
GCTTTAATTC	1.029 ± 0.0049
TTTCGTTGAA	0.9964 ± 0.0069
TGCCGGCTGG	1.02 ± 0.053
CGAGCTTGAA	1.03 ± 0.022
TTCTTCACGG	1.04 ± 0.035
GAATTTTGTA	0.984 ± 0.041
AGAGTATTTT	0.999 ± 0.028
AGGAGAAAAT	1.04 ± 0.028
TTAGTGAAGT	1 ± 0.011
ACGGGGACGG	1.03 ± 0.042
AGATGTGGGT	0.972 ± 0.02
TGTGGCATTA	0.992 ± 0.023
TTTATTGGGC	0.988 ± 0.053

Sequence	switch fluorescence ratio
GGTGGAGGGT	0.9938 ± 0.0025
AACCAGTGAT	1.05 ± 0.017
ATTGACGTAT	1.07 ± 0.13
CAATTGTGGG	0.996 ± 0.026
GCGAGTGTCC	0.99 ± 0.019
CCTTAATTTG	1.007 ± 0.0089
CATCGGGTGG	1.03 ± 0.09
CTGACAGATT	1.11 ± 0.12
GTTTCAGGCT	0.9888 ± 0.0041
AAACTGGAT	1.01 ± 0.033
ACATGTTGGT	1.02 ± 0.028
ATTGGCTGTT	0.997 ± 0.052
AGGGGTACTG	1.01 ± 0.099
TTGTAGGGGA	1.04 ± 0.06
GGGGTAATTG	1.01 ± 0.019
GCCGCTAAGG	0.9968 ± 0.0035
GTTTGAAATT	1.03 ± 0.09
GAGCTCAAGT	0.991 ± 0.062
TCCCCGGTCA	1.09 ± 0.15
ATGGGTTTCT	0.989 ± 0.026
TTTTCCAATG	1.02 ± 0.017
TACGGCTATC	1.16 ± 0.047
ATATTTGTCA	1.03 ± 0.022
TGGCTGTGGG	0.991 ± 0.016
GTTTGTATTA	0.996 ± 0.011
